Here are results for 24 sequences from the DeepSol protein solubility set.

This data set can be described thus: soluble on expression in E. coli; label from the status in PepcDB or PDB records.
Take “MQTEGAQEMVLQDAVAGIYKKLVVDASGTQLLGAILVGDNSDYDALLHCYLNKTVLPDHAANLLFDTGMLDGEMPDSAIICSCHNVTKGDLVAEIQAGTTNLTDLKANTKAGTGCGGCSNMVKSVLDTQLAAMGVEVNNHLCEHFELSRQEMFHICQVEQIKDFDTLIALHGKGHGCDICKPTAASVFASLWNEHIMEPQHQSLQDSNDAFMANLQKDGSYSIVPRVPGGEITPDKLIVLGEVAQQYDLYTKITGGQRVDLFGAQLEQLPEIWQTLIDAGFETGHAYGKSVRTVKSCVGSTWCRYGVDDSVGLAIELENRYKGLRAPHKLKFAVSGCTRECAEAQSKDIGVIATENGWNLYVCGNGGMRPRHADLFASDLSKSELITMIDRVLMFYVSTADRLQRTSVWMENMEGGLDYLKQVILDDSLNLCDSLDEQMARVVDTYQCEWKSTLDNPQKLQRFRPFLNSTSGSKVLPYQRVRGQRIPVKQEV”: the “soluble on expression in E. coli” value is recorded as “not soluble”.
Take “MSLVTIYDVAAKAGVSIKTVSRVMNNEPNVRPVMRERVLAAAGELGYSPNLSARSLAGSRSFVIAVFVDAALTIDHWQSERGADYLSRIQLGATLVCRDAGYHLLIELIDHEGPQVRQEVAALLAALKPDGVILTPPSSDNAVVLELLDRAGTPYVRVGPERAEGLGPRVHMDDVAAAREMTDHLIGLGHKRIGFIVGEPRYGASQARRDGYLEAMRAKGLSVPEFWVRQGDFTFQSGLEQAKALLALPERPTAIFASNDDMALGAIAAIADAGLMTPGDVSVAGFDDSPSSRFSRPQLTTVRQPVAEMSSVAAKLLIERSRGGASTERPVDELLPFTLIHRASTEGHHHHHH”: the “soluble on expression in E. coli” value is given as “not soluble”.
Next, “GMEPTRKRKSAGGKPKGKGGWGDRKSGGWRGDHKPSKEGFGGKTRGEGFKKEGFKRDGFKKTGEGFKGKRKAGDSFAGKGERRYKDR”: “not soluble”; “MSLVENLFLEPQSKRRKINPETIESPSPNCNHWFVRNKICISCYTTVDNFEGRSFDYLYKGMQMSNEALGFTKGLISQTSWLEDKKLHLVLDLDQTLIHTIKTSLLYESEKYIIEEVESRKDIKRFNTGFPEESLIKLRPFVHQFLKECNEMFSMYVYTKGGYDYARLVLEMIDPDKFYFGNRVITRRESPGFKTLDLVLADERGIVIVDDTSSVWPHDKKNLLQIARYKYFGDKSCLFSEDKKKIDESDEKGPLNTALRFLKDVHEEFFYDWSKKDLDSVDVRPLLKEISLRWKRKADGVV”: “soluble”; “KQLEKDLLASAETLQRERHQIANALESEIKTELCDLYMDKADFKVVFTKGKFNRDGNEQVEFYISTNPGEGFKPLVKVASGGELSRLMLAIKSAFARKEDKTSIVFDEVDTGVSGRVAQAIAQKIHKIGSYGQVLAISHLPQVIAIADYQFFISKESDNETTVSRVRLLTPEERVEEIAKMLAGDNLTDAALSQARALLKVDEPV”: “not soluble”.
Next, “GDLSNYFSNLSRLNCPQTIMTFRLFDPGFPFTDIEVNADIVLDRDAEKLPENWLQQLTGLSDTDVSMTAKGNVLSGQFLLPDFNLKLQDKSHAYLLLQGMDLEEVLRIQPQIGIYANGLFDGVLPVDLVDGKVSISGGQLAARAPGGLIAISGNPAVDQMRQSQPYLDFVFSALEHLAYSQLSSSFDMDNTGDATLLVEVKGRSQGIERPIHLNYSHEENMLQLFRSLQIGNDLQNRIEK”: “not soluble”; “MAHHHHHHMPHHAQDLRHDFTSGILNCHESCAVCLDACLCMYCTASAHHNFLMNDTEGLYLPVCWGLFCVDVGLSAVSSYLPSSLHFHTYFMRSAIRRRYNLHSA”: “soluble”; “MTLVVPFDGSELAEAALVRAAEFGTVFEEDVLAVSVIRNGNAKYAREHDWIGPNEDFDLEAVVTSLHEQVIDLCPSSDFRHTVVDRYAPAGAVAKAIRKLAKREDASMVFIGSENAGHLVTSISSVGGSIASDDAYDVVIVRHR”: “not soluble”.
Consider “MTHRTKTRPVKVGNLTIGGNNELIIQSMTTTKTHDVEATVAEIKRLEEAGCQVVRVAVPDERAANAIADIKKQINIPLVADIHFDYRLALKAIEGGIDKVRINPGNIGRRHKVEAVVNAAKERGIPIRIGVNAGSLERHILEKYGYPTADGMVESALHHIKILEDLDFHDIIVSMKASDVNLAIEAYEKAARAFDYPLHLGITESGTLFAGTVKSAAGLGAILNKGIGNTLRISLSADPVEEVKVARELLKSFGLASNAATLISCPTCGRIEIDLISIANEVEEYISTLQVPIKVAVLGCAVNGPGEAREADIGIAGARGEGLLFRKGQVVRKVPEEIMVEELKKEIDVIAAEMAAEREKEKETQEQ”, for which the “soluble on expression in E. coli” value is “not soluble”.
For the sequence “MTKAETSIGVFYVSEYGYSDRLAQAIINGITKTGVGVDVVDLGAAVDLQELRELVGRCTGLVIGMSPAASAASIQGALSTILGSVNEKQAVGIFETGGGDDEPIDPLLSKFRNLGLTTAFPAIRIKQTPTENTYKLCEEAGTDLGQWVTRDRSIKAMKSLGLEHHHHHH”, the “soluble on expression in E. coli” value is listed as “soluble”.
Next, “HPISLMRAPVNEIMVGLGYYEVMPFTLTSEKVNFENMCREKTDDVTYVLHPISEDQTMLRTTVLPNLLEILALNQHRELPQKIFEFGEVVSNETTGQHVAAVSIHPQANFTEVYEVVDAFMREMMLSYEVKESKDPAFLEGRRADVYVNGKKLGVFGELQPEVISKFSLGYAVVGFELDLNDLIGKN”: “not soluble”.
As to “MSLSKKPCAHIDCELEGGFERSIWIPVRVARLYVKNRPDLPCDWDNFREAVQLIERQCALTMVTEMLSRRDHATGEVCDKLARYGFHQPAIDFAVERATEYHFLDENRFCSYFIEERKRRGWGQRKIETELKRRHVVLDDIPGYPEDYFAVEDDLARASALLAKRRVPETRGFEKLVRFLMGKGFSYHIAADAVKARLDAEREEGHHHHHH”, the “soluble on expression in E. coli” value is “not soluble”.
Next, “MWNNVTTIKIQFHRIEQLGSVQLDDKNRICKFTSFDGQLELQGRHGRCSVDIESPEFVRFVQFLVNKTEKSNEPIDQRRVFGKFRALEHGVLDVTTYRNRFHGVVARNMILLDNLSIDLSIRMIFALSGKMETNFLSEVEKHGIVRLDNQNRIIEYVANDGKMKLKGQHDGRKDHGTQATQDPV”: “not soluble”.
On to “MSLGDRFYDLISALHKSVRGSAPDAALYWYARILTAGGDPLYVARRLLAIASEDVGNADPRAMQVALAAWDCFSRVGAYEGERAIAQAIIYLSVAPKSNAVYTAFNTAKQQAKDLPDYDVPPHLRNAPTNLMKELGYGTEYRYAHDEPNAYAAGENYFPPELKDTQYYFPTNRGMEIQIKEKLERLREQDKSTEGHHHHHH”, for which the “soluble on expression in E. coli” value is “soluble”.
The entry for “MSDDPNTTQERAMEGPSENQAARQLEGNQEEAQRQPKEEQADREEAKGEEEAPQVAAALPIPDSPFLTELARLLRGSLRPYLNTEPDEVIEAARQDHQLDQEVANENLLQYICRTLVESNDMGKLAEIRELFARTPEDPAFNTPAGIDDSAMNQFYELIRDCRVVPEDDQTFVPRQALATRIHLIIDSFQARRESEFLRQWCQQNIVCLLYGNPVPEMKDFAYRILIEMLTSSSTWTAELESFANELSRKRGTFINDYWATIRDQNEAGDLDPKRTLFADFRDQHSVFGNVQFDIFRERLAQLEKLWHSQMRMFDVPDKVLCVTGIVTDTMTEMLMGVKDGKPNITPFLKKARIFYRLSDGAETSEAPAEASARASEAPEAPALPPKRSRGIKRKLSEYAEELFESKKPKSDELPTAEQWMYFLQHCLQGPEQDEQRGGNQ” is “not soluble”.
The entry for “MGSDKIHHHHHHMFVCEVRFECFADTTISAAQHAINHLLEAWRANGQILGREFAVSFHDGEFKARLMLPAQDSLANRHNSPWAKAALKGLTDAKILPPREKLLGQDINANESATHTPEWQLLYTSYVHMCSPVRSGDNLLPIPLYKLPATFNGDHKQLIRWQTEWQACDELQMASATKAEFAALDELCNVGSDLFRRGWDLRGRIEYLTKIPTYYYLYRVGGSSLQDELARPCPRCGSTGWRLDEPLLDMFHFRCEPCRIVSNLSWDYQ” is “not soluble”; for “MGTGSGGPIGVSPFHSRGALKGFVISGRWPDSTKEWAQLLMVAVRVASLPGLLSTTTVFGAREELPDEPEPGTVGLVLAEGTVFGESAIQPGYFADHQPPALLMLHPPSETTPSLPECTGAASGCVLLPGLPYLGLEHRAAWVEAEADGTITSMVSRVGVDPISHPDTAILAMLLAA” it is “soluble”; for “MSDALTLTAAKKNARNRIRAARLARSTADLHADNAAILNQLTALIRTINATRAAAYMPEVTEPGGVDFADNLTGILSELWIPKSLPNRQLVWGHYSGGDSVERGTFGILEPTTPSRSSDILHDVDLIIVPALGITPSGRRLGQGAGYYDRALAGVATPTVAILFDSEVNTTIPFEPHDATCDWIITPEGTKQVT” it is “not soluble”.
The entry for “MFQVKVRGCMTVYPKVQCISYKIDVDKPTVCELTLCLAPNSDVPADRFSNDLFLVVYNNEQKLVGLTRHVLEERKYSTGMMTVNEGDEVMIVGMGTTTNRKRSTTERVPLIEETNKLSKRFK” is “not soluble”.
For the sequence “MLTSEQVKAMIEGVAKCEHIEVEGDGHHFFAVIVSSEFEGKARLARHRLIKDGLKAQLESNELHALSISVAATPAEWAAKAQ”, the “soluble on expression in E. coli” value was “not soluble”.
Next, “MVSIMNKNELITEILKNEVVKALGCTEVGLIGYTVAKAKPEDLYSIKEIKLILDKGTFKNAFSVGVPNTNKFGILPAVVGGLLGREENKLEVFKDIKYDEKLEEFIENKLKIEVIDSDVYCKVIIKANKVYEAETKGSHSGKSLSDDLKNAYKSLTLKDFIDYIEDIPEEVIKIIKETIETNKNLSTPEVPEDFISLDLKDEILNHMLKKTVSAVYNRMIGINKPAMAIAGSGNMGLTATLPIIAYDEIKGHDEEKLTKSITLSALTTIYSAYHSSYISAMCGCVNRGGIGAVSGLSYYIFGFDRIEESIKSFTANLPGIVCDGGKIGCALKIASGVFAIYLSLFSKVPYTNGIVGKDFKECIENIGKIGKAMKPVDDEIIEILKNKK”: “soluble”.
Next, “MSLDLHYKQFLLLNLYRQDKCLLAEVLLKDSSEFSFGVKFFNYGQLIAYIDSLNSNVYNASITENSFFMTFFRSYIIENTSHKNIRFFLENVECPFYLRHNEVQEFMFAMTLFSCGNFDQSYEIFQLHDYPEAINDKLPTFLEDLKSENYHGDSIWKDLLCTFTVPYRHSAFYYQLSLLFDRNNSQEFALKCISKSAEYSLKEIQIEELQDFKEKQHIHYLNLLIHFRMFEEVLDVLRLGHECLSDTVRTNFLQLLLQEDIYSRDFFSTLLRLCNAHSDNGELYLRTVDIKIVDSILSQNLRSGDWECFKKLYCFRMLNKSERAAAEVLYQYILMQADLDVIRKRKCYLMVINVLSSFDSAYDQWILNGSKVVTLTDLRDELRGEGHHHHHH”: “not soluble”.
The entry for “NKDWSYRIGFNLYDSQSEITKYNNETNLLGDKIYRKGMKMGEIWGYVTDRFYTEDDFNADGTLKPGIPIPKGAGKVFPGDVLYKNFDDDTETIWSGEGTADNPGDQRIIGNSTPRFHYGITAGISWKGLDLSIFLRGVGKRDYWRTDQIAWPTGGWGSLFKETLNFWTPTNTNAYYPRVYSNDGVNTSYNHWKQSKYLANASYLKLQNITLSYTLPKVWSQRLYFDDVKVFFSGENLYTWDHLPEGLETDMLSKGAWEYPFMRKFSFGINVTF” is “not soluble”; for “MIIVYTTFPDWESAEKVVKTLLKERMIACANLREHRAFYWWEGKIEEDKEVGAILKTREDLWEELKERIKELHPYDVPAIIRIDVDDVNEDYLKWLIEETKK” it is “soluble”.
